Blank lines part the entries; values can stand above or below the binder they belong to.
Key:
Details in all cases: both partners purified
[1] = biological target: T1, recombinant TNFR2 extracellular domain fused with rabbit IgG1 Fc (Homo sapiens, UniProt P20333); assay: SPR; Biacore T200; antibodies (1 ug/mL, ca. 400 RU) captured on a CM5 chip with anti-human IgG Fc; TNFR2-rFc and CD30-rFc (10 nM) run one after the other as 1st and 2nd analytes, in both orders; PBS, 0.05% Tween 20, pH 7.4, 25 °C
T1 construct: TNFR2, human, extracellular domain; also called TNFR2-rFc; source: Expi293F, transfected; purified on Protein A (as the chimeric antibodies)

[2] = biological target: T2, recombinant CD30 extracellular domain fused with rabbit IgG1 Fc (Homo sapiens, UniProt P28908); assay: as above
T2 construct: CD30, human, extracellular domain; also called CD30-rFc; source: Expi293F, transfected; purified on Protein A (as the chimeric antibodies)

[3] = biological target: T2, recombinant CD30 extracellular domain …; assay: flow cytometry on cells; crosslinking: antigen-expressing cells incubated with mAb or BsAb (10 ug/mL), washed twice, then CD30-rFc or TNFR2-rFc (50 ng/mL) 1 h on ice; rFc detected with R-PE anti-rabbit IgG; the antibody is held on the cells by its other arm

T2 sequence (P28908 19-385): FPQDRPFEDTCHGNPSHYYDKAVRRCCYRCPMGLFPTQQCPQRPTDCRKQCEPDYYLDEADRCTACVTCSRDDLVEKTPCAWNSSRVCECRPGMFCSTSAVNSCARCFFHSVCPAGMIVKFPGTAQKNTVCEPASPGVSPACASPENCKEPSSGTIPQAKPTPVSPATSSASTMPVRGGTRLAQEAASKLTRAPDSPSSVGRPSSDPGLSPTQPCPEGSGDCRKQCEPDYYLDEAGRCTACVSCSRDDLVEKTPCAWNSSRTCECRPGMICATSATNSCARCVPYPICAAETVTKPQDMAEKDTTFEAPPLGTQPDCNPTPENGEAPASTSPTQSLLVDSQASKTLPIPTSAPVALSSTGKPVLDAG

binding result [1]: binds
binding result [2]: no binding (tested: 10 nM)
B1: anti-TNFR2 TR109, human chimeric monoclonal antibody (antibody, V domains shown)
VH: QVQLKESGPGLVAPSQSLSITCTVSGFSLTVYGVNWVRQPPGKGLEWLGMIWGDGSTAYNSALKSRLTITKDNSKTQVFLKMNSLQTDDTARYYCARDGRRYALDYWGQGTSVTVSS
VL: DIVLTQSPTSLAVSLGQRATISCRASESVDSYGDSFLHWYQQKPGQPPILLIYRASNLDSGIPARFSGSGSRTDFTLTINPVEADDVATYYCQQSNEDPYTFGGGTKLEIK

binding result [1]: no binding (tested: 10 nM)
binding result [3]: binds
B2: anti-CD30 T104, human chimeric monoclonal antibody (antibody, V domains shown)
VH: QIQLVQSGPELKKPGETVKISCKASGYTFTDYSMHWVKQAPGKGLKWMGWINTETGEPTYADDFKGRFAFSLETSASTAYLQINNLKNEDTATYFCTEGYVFDFWGQGTTLTVSS
VL: DILLTQSPAILSVSPGERVSFSCRASRSIGTSIHWYQQRTNGSPRLLINYASESISGIPSRFSGSGSGTDFTLSINSVESEDIADYYCQQSNSWPLTFGAGTKLELK

binding result [1]: no binding (tested: 10 nM)
binding result [2]: binds
B3: C-cleaved side product of the IMPTS reaction, monovalent Fab^CD30-Fc (SEC peak P2) (antibody, V domains shown)
VH: B2 VH
VL: B2 VL

— publication PMC8484483 (Scientific Reports, 2021)
